This note sets out measurements from patent US20180194839A1 (Novartis, published 2018).

For experiment [1], the target named is T1, recombinant human IL-17C (R&D Systems Cat#1234IL/CF) (human, UniProt Q9P0M4 19-197).
T1 construct: also called huIL-17C; hu IL-17C
T1 sequence (looked up): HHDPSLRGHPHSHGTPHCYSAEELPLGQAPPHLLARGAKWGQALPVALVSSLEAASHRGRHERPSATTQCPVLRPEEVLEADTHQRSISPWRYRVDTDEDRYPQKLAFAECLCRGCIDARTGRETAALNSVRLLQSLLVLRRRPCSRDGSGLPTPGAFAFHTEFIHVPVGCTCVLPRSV
In words: ELISA, coated antigen, Ab 1 µg/ml.

Experiment [2] has as its target T2, recombinant human IL-17D (R&D Systems Cat#1504IL/CF) (human, UniProt Q8TAD2 18-202, limits assumed).
T2 construct: also called huIL-17D; hu IL-17D
T2 sequence (looked up): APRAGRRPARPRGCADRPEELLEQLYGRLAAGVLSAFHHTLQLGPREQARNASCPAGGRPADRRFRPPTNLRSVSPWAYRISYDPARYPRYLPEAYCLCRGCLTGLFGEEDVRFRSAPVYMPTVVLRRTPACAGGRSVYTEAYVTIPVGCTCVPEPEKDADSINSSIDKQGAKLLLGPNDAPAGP
Kind of experiment: ELISA, coated antigen, Ab 1 µg/ml.

The target of experiment [3] is T3, recombinant human IL-17A/F heterodimer (human, UniProt Q16552 24-155; Q96PD4 31-163, limits assumed).
T3 construct: heterodimer of an IL-17A subunit and an IL-17F subunit; also called huIL-17A/F; rhuIL-17A/F
T3 sequence (looked up) 1: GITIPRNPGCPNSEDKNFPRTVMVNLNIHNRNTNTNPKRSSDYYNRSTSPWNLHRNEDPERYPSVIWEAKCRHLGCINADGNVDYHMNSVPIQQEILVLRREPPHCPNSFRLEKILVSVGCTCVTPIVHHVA
T3 sequence (looked up) 2: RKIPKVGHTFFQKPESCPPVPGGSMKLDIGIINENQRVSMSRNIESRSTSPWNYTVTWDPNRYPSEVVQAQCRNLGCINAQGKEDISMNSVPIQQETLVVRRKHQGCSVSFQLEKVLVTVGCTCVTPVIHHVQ
Kind of experiment: ELISA, coated antigen, Ab 1 µg/ml. In general terms: In an ELISA, binding on a coated surface is turned into a signal by an enzyme label.

The target in experiment [4] is T4, recombinant human IL-17A (SEQ ID NO: 76) (human, UniProt Q16552 24-155, limits assumed).
T4 construct: homodimer; also called huIL-17A; rhuIL-17A
T4 sequence: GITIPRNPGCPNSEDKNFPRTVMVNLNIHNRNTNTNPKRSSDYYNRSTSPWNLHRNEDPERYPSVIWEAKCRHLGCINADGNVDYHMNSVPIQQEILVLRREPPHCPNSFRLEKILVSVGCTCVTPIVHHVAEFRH
In words: ELISA, coated antigen, Ab 1 µg/ml.

Experiment [5] has as its target T5, recombinant human IL-17E (R&D Systems Cat#1258-IL/CF) (human, UniProt Q9H293 33-177).
T5 construct: also called huIL-17E; hu IL-17E
T5 sequence (looked up): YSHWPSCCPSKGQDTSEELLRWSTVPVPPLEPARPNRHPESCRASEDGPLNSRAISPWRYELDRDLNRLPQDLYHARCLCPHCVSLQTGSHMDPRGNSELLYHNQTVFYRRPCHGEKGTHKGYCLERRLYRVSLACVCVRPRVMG
Kind of experiment: ELISA, coated antigen, Ab 1 µg/ml.

For experiment [6], the target named is T6, recombinant human IL-17B (R&D Systems) (human, UniProt Q9UHF5 21-180).
T6 construct: also called huIL-17B; hu IL-17B
T6 sequence (looked up): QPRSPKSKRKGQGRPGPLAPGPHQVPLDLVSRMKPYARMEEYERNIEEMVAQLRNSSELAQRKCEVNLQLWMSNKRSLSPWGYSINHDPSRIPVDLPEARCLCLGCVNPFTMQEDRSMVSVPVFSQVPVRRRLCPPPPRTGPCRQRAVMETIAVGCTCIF
In words: ELISA, coated antigen, Ab 1 µg/ml.

The target in experiment [7] is T7, recombinant mouse IL-17F (SEQ ID NO: 84) (mouse, UniProt Q7TNI7 29-161).
T7 construct: also called mIL-17F; rmIL-17F
T7 sequence: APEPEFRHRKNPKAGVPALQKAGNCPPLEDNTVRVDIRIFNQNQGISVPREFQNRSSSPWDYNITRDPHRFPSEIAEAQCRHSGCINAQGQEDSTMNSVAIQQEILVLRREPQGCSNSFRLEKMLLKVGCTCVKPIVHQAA
Kind of experiment: ELISA, coated antigen, Ab 1 µg/ml.

In experiment [8] the target is T8, recombinant mouse IL-17A (SEQ ID NO: 83) (mouse, UniProt Q62386 26-158).
T8 construct: also called mIL-17A; rmIL-17A
T8 sequence: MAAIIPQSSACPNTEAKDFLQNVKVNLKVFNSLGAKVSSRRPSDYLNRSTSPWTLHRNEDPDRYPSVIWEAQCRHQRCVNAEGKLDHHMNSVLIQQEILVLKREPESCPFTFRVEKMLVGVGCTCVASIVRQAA
In words: ELISA, coated antigen, Ab 1 µg/ml.

Experiment [9] addresses T3, recombinant human IL-17A/F heterodimer. In words: cell-based or functional assay.
Experiment [10] has as its target T9, recombinant human IL-17F (SEQ ID NO: 77) (human, UniProt Q96PD4 31-163).
T9 sequence: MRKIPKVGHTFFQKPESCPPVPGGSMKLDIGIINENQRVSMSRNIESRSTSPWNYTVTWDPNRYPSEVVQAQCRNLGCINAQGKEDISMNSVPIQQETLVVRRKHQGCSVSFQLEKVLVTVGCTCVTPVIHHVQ
Kind of experiment: cell-based or functional assay.

Experiment [11] addresses T4, recombinant human IL-17A (SEQ ID NO: 76). Kind of experiment: cell-based or functional assay.
The target of experiment [12] is T10, recombinant rat IL-6 (R&D Systems Cat#506-RL-010) (rat, UniProt P20607 25-211).
T10 sequence (looked up): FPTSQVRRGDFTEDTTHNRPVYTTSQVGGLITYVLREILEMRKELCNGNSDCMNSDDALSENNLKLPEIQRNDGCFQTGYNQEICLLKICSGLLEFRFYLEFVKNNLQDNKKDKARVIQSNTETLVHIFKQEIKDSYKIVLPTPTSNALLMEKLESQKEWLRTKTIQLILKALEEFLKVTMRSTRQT
In words: ELISA, coated cytokine, Ab 10 µg/ml.

Changes are numbered by the printed parent chain. Names may count otherwise.

B1: XAB4 (antibody, human IgG1, kappa, V domains shown)
VH: EVQLVESGGDLVQPGGSLRLSCAASGFTFSSYWMSWVRQAPGKGLEWVANIKQDGSEKYYVDSVKGRFTISRDNAKNSLYLQMNSLRAEDTAVYYCARDRGSLYYWGQGTLVTVSS
VL: AIQLTQSPSSLSASVGDRVTITCRPSQGINWELAWYQQKPGKAPKLLIYDASSLEQGVPSRFSGSGSGTDFTLTISSLQPEDFATYYCQQFNSYPLTFGGGTKVEIKR
notes: also called MB435 N56Q
Consider B1, for which the O.D. in experiment [1] was 0.036 O.D; in experiment [2], 0.034 O.D; in experiment [3], 2.14 O.D; in experiment [4], 2.47 O.D; in [5], 0.035 O.D; in experiment [6] it was 0.034 O.D. Further, the O.D. is 0.098 O.D in experiment [7], 1.58 O.D in experiment [8] and 0.021 O.D in experiment [12]. For the same molecule, in experiment [9], the “IC50, huIL-6 secretion by BJ cells; stimulus rhuIL-17A/F (300 pM) + rhuTNF-α (6 pM)” value stood at 0.17 nM. Further, the “IC50, huIL-6 secretion by BJ cells; stimulus rhuIL-17A/F (3 nM)” value in [9] was determined as 1.68 nM. Further, in experiment [10], the “IC50, huIL-6 secretion by BJ cells; stimulus rhuIL-17F (10 nM) + rhuTNF-α (6 pM)” value was > 3 µM. The “IC50, huIL-6 secretion by BJ cells; stimulus rhuIL-17F (30 nM)” value in experiment [10] is > 3000 nM. For the same molecule, the “IC50, huIL-6 secretion by BJ cells; stimulus rhuIL-17A (1 nM)” value in experiment [11] was 0.63 nM.

B2: XAB1 (antibody, human IgG1, kappa, V domains shown)
VH: B1 VH
VL: B1 VL with N30I, W31S, E32A, Q56N
notes: human IgG1/kappa monoclonal antibody; also called parental XAB1; XAB1 IgG
Regarding B2, the O.D. in experiment [1] came to 0.032 O.D; in [2], 0.031 O.D; in experiment [3] it was 1.22 O.D; in experiment [4], 1.3 O.D; in experiment [5], 0.033 O.D; in experiment [6], 0.049 O.D. Also, the O.D. in experiment [7] came to 0.044 O.D; in experiment [8], 1.44 O.D; in [12] it was 0 O.D. In addition, the “IC50, huIL-6 secretion by BJ cells; stimulus rhuIL-17A/F (300 pM) + rhuTNF-α (6 pM)” value in experiment [9] was 3.83 nM. For the same molecule, in experiment [10], the “IC50, huIL-6 secretion by BJ cells; stimulus rhuIL-17F (10 nM) + rhuTNF-α (6 pM)” value is > 3 µM. Also, the “IC50, huIL-6 secretion by BJ cells; stimulus rhuIL-17A (30 pM) + rhuTNF-α (6 pM)” value in experiment [11] was determined as 0.47 nM.
